Values joined by “and” are separate entries in the source; they are usually repeats but may differ in a detail not shown here. Equal values may be shown once.

The term Kd denotes the equilibrium constant for the complex coming apart. High values mean weaker binding, low ones tighter binding.

Test [1] concerns the target T1, p300 (CH1 domain, residues 330–420) (Homo sapiens, UniProt Q09472).
T1 construct: GST (N, cleaved yes); made in house; host or cells: E. coli BL21 pLysS (pGEX-4T1-p300)
As to the kind of experiment: ITC of chemically synthesized HIF-1α, CITED2 and CITIF peptides binding to p300. The conditions noted are these: pH 7.5. As to the method: Raw ITC (upper) data and fitted thermogram (lower) (40 mM sodium phosphate, pH 7.5 100 mM NaCl, 1 mM DTT buffer using 5 μM protein in the cell and 60 μM ligand in the syringe at 35 °C) error bars represent the estimated integration errors; (b) Thermodynamic signatures for each interaction.
Figure S8 (a) Sequences of the truncated CITED2 peptides and isothermal titration […]
µM peptide in the syringe. All measurements were carried out 40 mM sodium phosphate, pH 7.5 100 mM NaCl, 1 mM DTT buffer at 35°C. Error bars represent the estimated integration […]
Table S2 Thermodynamic parameters for shortened CITED2 sequences. 68% confidence intervals for the fitting are shown in brackets. Data fitted to a single binding site model, fixed 1:1 stoichiometry with incompetent protein fraction as an adjustable parameter. […]
(§1) Isothermal titration calorimetry
(§2) Prior to ITC measurement p300 CH1 was dialysed or run on S75 column in the buffer used for titration, and the same buffer was used to dissolve the pure peptides. Experiments with […]
(§3) MicroCal iTC200 instrument with 10 µM protein in the cell and 100 µM ligand in the syringe at 37°C, using 2 µl injections and 120 or 180 s spacing between injections. Experiments with the […]
(§4) instrument using 3-5 µM protein in the cell and 40-60 µM ligand in the syringe at 35°C, using 5 µl injections and 180 s spacing between injections, for 40 injections. Titrations were performed in 40 mM Na-phosphate, pH 7.5 100 mM NaCl, 1 mM DTT buffer except for GFP-HIF-1α and variants for which 25 mM Tris-HCl, 150 mM NaCl, 1mM DTT, pH 7.4 buffer was used. Data were analysed using NITPIC3 and fitted using SEDPHAT4 to a single binding site model (fixed 1:1 stoichiometry), with baseline and incompetent protein fraction as adjustable parameters. 68 % confidence intervals for the fitted values were determined using the automatic confidence interval search implemented in SEDPHAT. Figures were prepared using […]

Test [2] has as its target T1, p300 (CH1 domain, residues 330–420). As to the kind of experiment: ITC of expressed HIF-1α, CITED2 and CITIF peptides binding to p300. As to conditions: pH 7.5. As to the method:
We hypothesized that it would be possible to enhance the affinity of HIF-1α for p300 by hybridising key regions of both CITED2 and HIF-1α (see later). We first measured the affinity of the parent peptides. A particular difficulty in comparing these peptide sequences is the different length used in different studies.[28,33,35,36] […]
data and fitted thermogram (lower) (40 mM sodium phosphate, pH 7.5 100 mM NaCl, 1 mM DTT buffer using 5 µM protein in the cell and 60 µM ligand in the syringe at 35°C); (b) Thermodynamic signatures for each interaction. […]
as §1, §2, §3, §4

The target in test [3] is T2, p300 CH1 domain (residues 330-420), GST removed with thrombin (human, UniProt Q09472 330-420).
T2 construct: human p300, CH1 domain (zinc finger, TAZ type 1), residues 330-420; Thrombin-cleaved construct (expected m/z 10603.30), used on the Microcal VP ITC with synthetic partners (D1:p17); source: E. coli BL21 pLysS (pGEX-4T-1), glutathione beads, on-column thrombin cleavage, SEC
T2 sequence (Q09472 330-420): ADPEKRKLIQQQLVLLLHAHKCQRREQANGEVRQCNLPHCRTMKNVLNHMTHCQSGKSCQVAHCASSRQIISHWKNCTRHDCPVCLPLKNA
As to the kind of experiment: ITC; global fit in SEDPHAT of three titrations (HIF-1α776-826 to p300, CITED2 peptide to p300, CITED2 peptide to preformed p300/HIF-1α776-826) to a model with a ternary CITED2-HIF-1α-p300 complex; 40 mM sodium phosphate, pH 7.5, 100 mM NaCl, 1 mM DTT; 35 °C. The conditions noted are these: both partners purified. (In general: ITC needs no label: the signal is the heat of the interaction.)

The target in test [4] is T3, p300 CH1 domain (residues 330–420) (UniProt Q09472 330-420).
T3 construct: p300 CH1 domain, residues 330–420; The cleavage of GST is said for the anisotropy control; also called p300 with the GST tag cleaved; source: recombinantly expressed as a fusion protein with GST, GST tag cleaved
T3 sequence (Q09472 330-420): as above
Nature of the test: ITC; expressed peptides (GFP tag cleaved) titrated to p300; conditions in Fig. S6 (ESI); fixed 1:1 stoichiometry. As to conditions: both partners purified.

Test [5] addresses T3, p300 CH1 domain (residues 330–420). Nature of the test: ITC; peptide in the syringe, p300 in the cell (Fig. 4: 5 μM protein, 60 μM ligand); 40 mM sodium phosphate, pH 7.5, 100 mM NaCl, 1 mM DTT, 35 °C; single-site model, fixed 1:1 stoichiometry. The conditions noted are these: both partners purified.
For test [6] the target is unchanged. Nature of the test: ITC; competition: CITED2 peptides titrated into the preformed p300/HIF-1α 776–826 complex (1.2–1.6 equivalents of HIF-1α); 40 mM sodium phosphate, pH 7.5, 100 mM NaCl, 1 mM DTT, 35 °C; competitive binding model; apparent. The conditions noted are these: both partners purified.

T1 sequence (Q09472 330-420): as above

On to “Ac-DEEVLMSLVIEMGLDRIKELPELWLGQNEFDFMTDF-NH2 [CITED224–259]”, for which, in test [1], the “ΔH, synthetic peptides” value is -12.4 kcal/mol and the “ΔS, synthetic peptides” value was −3.6 cal mol^−1 K^−1. For the same molecule, in test [2], the “ΔH, expressed peptides” value was -12.4 kcal/mol and the “ΔS, expressed peptides” value is recorded as −6.2 cal mol^−1 K^−1.

Take “Ac-NVIDTDFIDEEVLMSLVIEMGLDRIKELPELWLGQNEFDFMTDFVCKQQPSRVS-NH2 [CITED216–269]”: in test [1], the “ΔH, synthetic peptides” value is -13.2 kcal/mol and the “ΔS, synthetic peptides” value is −10.0 cal mol^−1 K^−1. Moreover, in test [2], the “ΔH, expressed peptides” value was -13.3 kcal/mol and the “ΔS, expressed peptides” value is −7.5 cal mol^−1 K^−1.

As for Ac-DEEVLMSLVIEMGLDRIKELPELWLGQNEFDFMTDF-NH2 (source: synthetic peptide) [CITED2224-259 (synthetic)], in test [3], binding was put at a Kd of 11.6 nM.

B1: HIF-1α 786–826, expressed peptide (GFP tag cleaved) (peptide)
peptide: GPGSSMDESGLPQLTSYDCEVNAPIQGSRNLLQGEELLRALDQVN
notes: four residues (Gly-Pro-Gly-Ser) remaining from the PreScission protease cleavage; Free N-terminus; source: expressed as GFP fusion protein, tag cleaved with PreScission protease
B1: the dH in test [4] is -32.7 kcal/mol.

B2: CITED2 224–259, chemically synthesized peptide (peptide, UniProt Q99967 224-259, looked up)
peptide: Ac-DEEVLMSLVIEMGLDRIKELPELWLGQNEFDFMTDF-NH2
notes: source: synthetic peptide (chemical synthesis, see ESI)
In test [5], B2 had a Kd of 9.1 nM and a dH of -12.4 kcal/mol. For the same molecule, the “KD,app (competition against the preformed p300/HIF-1α 776–826 complex)” value in test [6] is 12.2 nM.

B3: HIF-1α 776–826, expressed peptide (GFP tag cleaved) (peptide)
peptide: GPGSSDLACRLLGQSMDESGLPQLTSYDCEVNAPIQGSRNLLQGEELLRALDQVN
notes: as for B1
With B3, in test [4], binding was characterised by a dissociation constant (Kd) of 82.4 nM and the dH was -22.2 kcal/mol.

B4: HIF-1α776-826 (synthetic) (peptide)
peptide: Ac-SDLACRLLGQSMDESGLPQLTSYDCEVNAPIQGSRNLLQGEELLRALDQVN-NH2
modifications: cysteine pairing not given here
notes: source: synthetic peptide
Regarding B4, in test [3], the dissociation constant (Kd) was 67 nM and 48.8 nM and 52.3 nM.

B5: CITED2 216–269, chemically synthesized peptide (peptide, UniProt Q99967 216-269, looked up)
peptide: Ac-NVIDTDFIDEEVLMSLVIEMGLDRIKELPELWLGQNEFDFMTDFVCKQQPSRVS-NH2
notes: as for B2
In test [5], B5 had a Kd of 26.3 nM and a dH of -13.2 kcal/mol. For the same molecule, the “KD,app (competition against the preformed p300/HIF-1α 776–826 complex)” value in test [6] stood at 1.1 nM.

B6: CITED2216-269 (synthetic) (peptide)
peptide: Ac-NVIDTDFIDEEVLMSLVIEMGLDRIKELPELWLGQNEFDFMTDFVCKQQPSRVS-NH2
notes: source: synthetic peptide
B6 came in with a Kd in test [3] of 26.9 nM.

B7: CITIF, HIF-1α-CITED2 hybrid sequence, expressed peptide (GFP tag cleaved) (peptide)
chain: GPGSDEEVLMSLVIEMGLDRIKELPQLTSYDCEVNAPIQGSRNLLQGEELLRALDQVN
Consider B7, for which the dH in test [4] is -18.3 kcal/mol.

The values are drawn from PMC9092470, “Understanding p300-transcription factor interactions using sequence variation and hybridization†” (RSC Chemical Biology, 2022).
